Assay results published in paper PMC3589492, “Intersubunit Ionic Interactions Stabilize the Nucleoside Diphosphate Kinase of Mycobacterium tuberculosis” (PLoS ONE, 2013).

Target: the molecule itself
Assay: SEC; Superose 12 column, 50 mM Hepes pH 7.4, 150 mM sodium chloride, 0.4 mL/min, calibrated with molecular weight markers

B1: D93N mutant of the nucleoside diphosphate kinase of Mycobacterium tuberculosis (enzyme)
chain: MTERTLVLIKPDGIERQLIGEIISRIERKGLTIAALQLRTVSAELASQHYAEHEGKPFFGSLLEFITSGPVVAAIVEGTRAIAAVRQLAGGTNPVQAAAPGTIRGDFALETQFNLVHGSDSAESAQREIALWFPGA
notes: No tag is mentioned; also called D93N Mt-NDPK
- stoichiometry N: 6
